Test results reported in patent US12186353B2, “Method of reducing neuronal microtubule binding protein Tau (Tau) levels” (ADAERATA, LIMITED PARTNERSHIP, priority 2018, dated 2025).

Test system: Tau
Assay: Western blot of Tau fusion protein levels in HEK293T cells co-expressing Numb isoforms
Assay type: cell-based
Conditions: 48 hours after transfection
Text: FIGS. 6A-I: Isoform Numb-72 interacts with Tau and regulates Tau level. FIG. 6A. Schematic of 4 Numb isoforms, differing with the presence or the absence of an insertion (arrowhead) in PTB domain arrowhead, and the presence or the absence of an insertion in the proline-rich region (PRR). FIG. 6B. Coimmunoprecipitation of Tau and 4 isoforms of Numb in HEK293 cells. Each Numb isoform was transfected in HEK293T cells together with a flag-tagged version of Tau and immunoprecipitation was perform 24 hours later with a flag antibody and blotted for Numb. […] FIG. 6C. Detection of Tau::GFP level in presence of 4 isoforms of Numb by western blot in HEK293. All the Numb isoforms were transfected with a Tau::GFP fusion protein in HEK293T cells and the levels of Tau::GFP was analysed by western blot 48 hours after transfection. FIG. 6D. Schematic representation of DNA construct of a human-medulloblastoma-derived cell line (DAOY) expressing human Tau fused with EGFP (Lasagna-Reeves et al., 2016). Additionally, this cell line expresses DsRed upstream of an internal ribosomal entry site (IRES), which is translated independently of the Tau-GFP protein. DsRed-IRES-Tau::EGFP expressing cells were used to assess the abundance of Tau by monitoring the Tau-GFP to DsRed fluorescence ratio. FIG. 6E. DsRed and Tau::EGF expression in Daoy cells, transfected with Myc only construct. FIGS. 6F-J. Fluorescence-activated cell sorting (FACs) analysis of the 4 Numb isoforms affected 3 days after transfection on ratio DsRed versus DsRed and GFP-positives cells compared to the control (Myc-Tag). FIG. 6K Quantification represents fold change for 5 experiments, +/− SEM, **p≤0.001; n.s. non-significant Anova 1-way test.
Numb72::Myc. HEK293T cells were transfected with Jet Prime using the following constructs Tau::Flag, Tau::GFP, Numb65, Numb66, Numb71 and Numb72.
Cells were harvested, and lysed in a NP-40 buffer (50 mm TRIS, pH 8.0, 150 mm NaCl, 1.0% NP-40 with Complete Protease Inhibitor Cocktail (Roche)). For immunoblotting, 40 μg of protein samples for in vivo blot and 10 ug for in vitro blot were loaded on a 10% acrylamide SDS-PAGE gels for separation by electrophoresis migration and then transferred onto PVDF membranes using transblot machine (Millipore). […] The primary antibody was detected with an HRP-conjugated goat anti-rabbit (1:10,000; Jackson Immunoresearch) in 0.5% dry milk in TBST. […]
To determine whether increasing the levels of Numb could affect the levels of Tau, the inventors co-expressed all isoforms of Numb together with a Tau::Venus fusion protein in HEK293T cells and analyzed the levels of Tau::Venus by western blot 48 hours after transfection.

B1: Numb-72: 72 kDa Numb isoform with long PTB domain and long PRR; human isoform 1 (SEQ ID NO: 1); expressed by transfection (protein)
chain: MNKLRQSFRRKKDVYVPEASRPHQWQTDEEGVRTGKCSFPVKYLGHVEVDESRGMHICEDAVKRLKAERKFFKGFFGKTGKKAVKAVLWVSADGLRVVDEKTKDLIVDQTIEKVSFCAPDRNFDRAFSYICRDGTTRRWICHCFMAVKDTGERLSHAVGCAFAACLERKQKREKECGVTATFDASRTTFTREGSFRVTTATEQAEREEIMKQMQDAKKAETDKIVVGSSVAPGNTAPSPSSPTSPTSDATTSLEMNNPHAIPRRHAPIEQLARQGSFRGFPALSQKMSPFKRQLSLRINELPSTMQRKTDFPIKNAVPEVEGEAESISSLCSQITNAFSTPEDPFSSAPMTKPVTVVAPQSPTFQANGTDSAFHVLAKPAHTALAPVAMPVRETNPWAHAPDAANKEIAATCSGTEWGQSSGAASPGLFQAGHRRTPSEADRWLEEVSKSVRAQQPQASAAPLQPVLQPPPPTAISQPASPFQGNAFLTSQPVPVGVVPALQPAFVPAQSYPVANGMPYPAPNVPVVGITPSQMVANVFGTAGHPQAAHPHQSPSLVRQQTFPHYEASSATTSPFFKPPAQHLNGSAAFNGVDDGRLASADRHTEVPTGTCPVDPFEAQWAALENKSKQRTNPSPTNPFSSDLQKTFEIEL
modifications: homo sapiens
notes: 72 kDa Numb isoform with long PTB domain and long PRR; expressed by transfection
levels of Tau::Venus by western blot: significantly reduced the levels of Tau
